± gives the standard deviation of the averaged measurements.

The subject of this series is ATP. Briefly: switch fluorescence ratio, 500 uM ATP over buffer (Cy3 cluster intensity, sum of 5 cycles each) (fold (ratio)); higher = stronger signal-on switching upon ATP binding; sequences stand for … in TCGTCGGCAGCGTCAGATGTGTATAAGAGACAGTTTTTTTTTTTTTTTTTTTTTTTTT…TC. Particulars: aptamer strand: ATP DNA aptamer (quencher-CACCTGGGGGAGTATTGCGGAGGAAGG + anchor), 100 nM annealed; ATP concentration: 500 uM. The essentials:
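Exposure to 500 uM ATP lasted 15 min at 22 °C before imaging, and a selection-buffer image was taken beforehand, for Cy3-labelled switching-strand clusters on a modified Illumina MiSeq flow-cell annealed to 100 nM quencher-labelled ATP aptamer. Five buffer/ATP cycles were run with NaOH stripping and re-annealing between them. The fluorescence ratio per cluster is summed target-cycle over summed buffer-cycle Cy3 intensity, averaged per switch-domain sequence. Clusters outside 100-1000 RFU were excluded.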

Turning to GGGGATTGAA, the switch fluorescence ratio was 0.994 ± 0.018. TTTGCCATTT: the switch fluorescence ratio was 1.02 ± 0.033.

As for TTCATTACCC, the switch fluorescence ratio came to 1.028 ± 0.0082. Consider CGTCAGCGGC, for which the switch fluorescence ratio was 1.25 ± 0.053.

GATTATATAG: the switch fluorescence ratio turned out to be 0.957 ± 0.019. Consider TTGCGTTTCT, for which the switch fluorescence ratio turned out to be 1.08 ± 0.086. As for CAGGAACTTG, the switch fluorescence ratio came out at 0.956 ± 0.023. CGGGTAGTGC: the switch fluorescence ratio came out at 1.028 ± 0.0078.

Regarding ATTATATGGT, the switch fluorescence ratio came to 0.98 ± 0.029. As to GACCATACGC, the switch fluorescence ratio is 1.42 ± 0.055. As for TGTTTGATGG, the switch fluorescence ratio stood at 1.01 ± 0.038.

Take AGTGATTGGG: the switch fluorescence ratio was found to be 0.995 ± 0.031. Consider AGATGGCCGG, for which the switch fluorescence ratio is 1 ± 0.065. Consider GGTTGTGATA, for which the switch fluorescence ratio was 0.999 ± 0.044. GGGGGTTGCG: the switch fluorescence ratio was determined as 0.979 ± 0.015. As for ACCCGAAGGC, the switch fluorescence ratio is 1.08 ± 0.043. CCTGTGCAGG: the switch fluorescence ratio amounted to 1.11 ± 0.02. Consider TATCGAGTCG, for which the switch fluorescence ratio is 0.997 ± 0.034. On to ATCCAGGGGT, for which the switch fluorescence ratio was 1.06 ± 0.022. Consider TAAAGTTCTG, for which the switch fluorescence ratio was 1.01 ± 0.023. In the case of CGGGTAAACG, the switch fluorescence ratio is 0.964 ± 0.079. As for ACCTCAGCTT, the switch fluorescence ratio came to 1.48 ± 0.021.

Consider TAAATGTTAA, for which the switch fluorescence ratio was 0.9889 ± 0.0051. For the sequence AAGTACGGAG, the switch fluorescence ratio amounted to 1.04 ± 0.052. The same measure for GTCTGTTCGC: 1.02 ± 0.085; for TCGATGGATG: 1.025 ± 0.0058; for AAAAATCTCT: 1.02 ± 0.033.

With TGCGAGATTT, the switch fluorescence ratio is 1.01 ± 0.018.

In the case of AGAATCGAGT, the switch fluorescence ratio worked out at 1.01 ± 0.025. Turning to TGTTAGGCAA, the switch fluorescence ratio worked out at 1.06 ± 0.034. Turning to TTGAGCCCCG, the switch fluorescence ratio amounted to 0.951 ± 0.047. As to ATTAGCACGT, the switch fluorescence ratio was 1.023 ± 0.0031. As to TACTTATGTG, the switch fluorescence ratio was determined as 1.01 ± 0.02. Consider CGTGTGTACC, for which the switch fluorescence ratio worked out at 1.007 ± 0.0049. The same measure for ACTGGCATCC: 1.08 ± 0.029; for CTGGTCGCTG: 1.01 ± 0.046; for GAGAGGGTCA: 0.98 ± 0.025. TGATTATTTT: the switch fluorescence ratio is 0.991 ± 0.016.

As to GGTTAATTGG, the switch fluorescence ratio was 0.99 ± 0.047. Turning to ACTATATTGG, the switch fluorescence ratio is 1.065 ± 0.0095.

Take TACAGGTCGG: the switch fluorescence ratio was determined as 1 ± 0.033. The same measure for ATCGCCCGTT: 1.01 ± 0.016. In the case of TGACCGCTTT, the switch fluorescence ratio was 1.12 ± 0.029. With AGTGCTTTTA the figure was 0.9927 ± 0.0073; with CCGATTACGC, 1.9 ± 0.13; with GACGTGAAGG, 1.026 ± 0.0055. With CTGATGTGGC the figure was 1.06 ± 0.011; with GGATATGTTG, 0.994 ± 0.019. With GGGAAAGTGG the figure was 1.012 ± 0.008. Take TGAGGAAAAG: the switch fluorescence ratio came out at 1.006 ± 0.0065.

Turning to TTTAGGGTGA, the switch fluorescence ratio is 1.05 ± 0.028.

As to GGGGGCGGGA, the switch fluorescence ratio amounted to 1.02 ± 0.059. TCCTCGTCTC: the switch fluorescence ratio amounted to 1.69 ± 0.038. Turning to TTTGCAGAAC, the switch fluorescence ratio amounted to 1.2 ± 0.15.

Turning to CACCCTACTA, the switch fluorescence ratio is 1.29 ± 0.018. As to TGTGGGTTAT, the switch fluorescence ratio was determined as 0.976 ± 0.011. The same measure for GCGTGGGTTG: 0.998 ± 0.048; for TTCCAGTCC: 1.06 ± 0.027. In the case of GATTAGACAC, the switch fluorescence ratio was 1.013 ± 0.01. As for TATCGGGGTA, the switch fluorescence ratio is 1.002 ± 0.0047.

AGGGGTACTC: the switch fluorescence ratio is 0.9982 ± 0.0076. With AGTTCCAAAA the figure was 1.07 ± 0.1.

Regarding CCGAAAAGCT, the switch fluorescence ratio came out at 1.17 ± 0.041. For the sequence TGGTACATTA, the switch fluorescence ratio amounted to 1.34 ± 0.46. For the sequence GAGACGGAAT, the switch fluorescence ratio amounted to 1.06 ± 0.025. Consider GGGCGGTCTT, for which the switch fluorescence ratio worked out at 1.06 ± 0.097.
